Numbering of substitutions follows the chain as printed.
What was measured:
[1] = target: T1, C3b (human, UniProt P01024)
[2] = target: T2, human C4b (human) (UniProt P0C0L5)
T2 sequence: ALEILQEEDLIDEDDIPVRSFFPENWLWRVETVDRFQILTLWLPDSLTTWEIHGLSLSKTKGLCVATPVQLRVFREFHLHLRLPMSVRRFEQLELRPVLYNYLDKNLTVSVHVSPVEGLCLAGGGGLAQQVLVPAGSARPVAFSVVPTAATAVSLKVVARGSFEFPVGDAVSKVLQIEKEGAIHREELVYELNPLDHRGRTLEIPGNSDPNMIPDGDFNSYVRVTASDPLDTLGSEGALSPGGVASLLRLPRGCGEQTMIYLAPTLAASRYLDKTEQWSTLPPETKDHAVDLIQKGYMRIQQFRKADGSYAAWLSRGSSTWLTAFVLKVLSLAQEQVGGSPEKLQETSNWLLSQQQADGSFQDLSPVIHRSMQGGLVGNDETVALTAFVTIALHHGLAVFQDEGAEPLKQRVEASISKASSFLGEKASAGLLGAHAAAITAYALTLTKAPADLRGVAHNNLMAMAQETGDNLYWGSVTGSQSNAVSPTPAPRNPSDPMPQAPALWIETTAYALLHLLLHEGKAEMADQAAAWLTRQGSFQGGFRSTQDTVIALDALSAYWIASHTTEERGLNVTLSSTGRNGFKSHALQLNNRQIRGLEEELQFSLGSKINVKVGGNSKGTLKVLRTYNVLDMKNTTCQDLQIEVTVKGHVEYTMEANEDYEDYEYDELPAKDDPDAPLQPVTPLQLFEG

[3] = target: soluble human C3b (human) (UniProt P01024)
[4] = target: T1, C3b; remark: listed apart in the source
[5] = target: T3, human C4b (human) (UniProt P0C0L4)
T3 sequence: T2 sequence with T151A, G317D, L364P, S365C, I368L, H369D, S420N, A451V, R454L, A530S

[6] = target: soluble human C3b (human) (UniProt P01024); remark: listed apart in the source
[7] = target: T3, human C4b (human); remark: listed apart in the source
[8] = target: T2, human C4b (human); remark: listed apart in the source

CFI-HSA variant ΔC-term (Δ558-PFISQYNV (SEQ ID NO: 14)-565) (enzyme)
C3b cleavage, % Activity [1]: 7%
C4b Screen Ref Fold (fold vs CFI-HSA wild type) [2]: 0.11
iC3b Screen Ref Fold (fold vs CFI-HSA wild type) [3]: 0.03

CFI-HSA variant E457G-E461Q-F464Y (enzyme)
C3b cleavage, % Activity [1]: 106%

CFI-HSA variant F29A (enzyme)
C3b cleavage, % Activity [1]: 16%
C4b Screen Ref Fold (fold vs CFI-HSA wild type) [2]: 0.17
iC3b Screen Ref Fold (fold vs CFI-HSA wild type) [3]: 0.05

CFI-HSA variant E457G + E461Q + R462K + F464Y (mouse CFI autolysis loop swap) (enzyme)
C3b cleavage rate, kmut/kwt [4]: 2

CFI-HSA variant E457G (enzyme)
C3b cleavage rate, kmut/kwt [4]: 3
C4b Screen Ref Fold (fold vs CFI-HSA wild type) [2]: 5.37
iC3b Screen Ref Fold (fold vs CFI-HSA wild type) [3]: 1.58
C4c EC50 (nM) [5]: 138 nM
iC3b EC50 [6]: 11.1 nM

CFI-HSA variant R35A (enzyme)
C3b cleavage, % Activity [1]: 47%
C4b Screen Ref Fold (fold vs CFI-HSA wild type) [2]: 0.06
iC3b Screen Ref Fold (fold vs CFI-HSA wild type) [3]: 0.12

CFI-HSA variant K14A (enzyme)
C3b cleavage, % Activity [1]: 93%
C4b Screen Ref Fold (fold vs CFI-HSA wild type) [2]: 0.3
iC3b Screen Ref Fold (fold vs CFI-HSA wild type) [3]: 0.73
C4c EC50 (nM) [5]: 401 nM

CFI-HSA variant Δ(K1-P305) (HSA-SPD) (enzyme)
C3b cleavage, % Activity [1]: 35%

CFI-HSA variant D26A (enzyme)
C3b cleavage, % Activity [1]: 94%
iC3b Screen Ref Fold (fold vs CFI-HSA wild type) [3]: 0.34

CFI-HSA variant 456-… (SEQ ID NO: 9)-465 --> … (SEQ ID NO: 10) (human trypsin autolysis loop swap) (enzyme)
C3b cleavage rate, kmut/kwt [4]: 0
C3b cleavage, % Activity [1]: 18%

CFI-HSA variant N531A (enzyme)
C3b cleavage rate, kmut/kwt [4]: 1
C4b Screen Ref Fold (fold vs CFI-HSA wild type) [2]: 0.31
iC3b Screen Ref Fold (fold vs CFI-HSA wild type) [3]: 1.21
C4c EC50 (nM) [5]: 278 nM
iC3b EC50 [6]: 24.3 nM

CFI-HSA variant 514-MDANNVT (SEQ ID NO: 13)-520 → NG (hTrypsin 200-loop swap) (enzyme)
C3b cleavage, % Activity [1]: 11%

CFI-HSA variant E38A + D425R (enzyme)
C3b cleavage rate, kmut/kwt [4]: 1

CFI-HSA variant M220A + K221Q (enzyme)
C3b cleavage, % Activity [1]: 92%

CFI-HSA variant Y408L (enzyme)
C3b cleavage rate, kmut/kwt [4]: 1
C3b cleavage, % Activity [1]: 104%
C4b Screen Ref Fold (fold vs CFI-HSA wild type) [2]: 1.46
iC3b Screen Ref Fold (fold vs CFI-HSA wild type) [3]: 1.4
C4c EC50 (nM) [5]: > 1000 nM
iC3b EC50 [6]: 21.3 nM

CFI-HSA variant N531G; E457G; T377G (enzyme)
C4b Screen Ref Fold (fold of CFI-HSA wild type) [7]: 4.33
iC3b Screen Ref Fold (fold of CFI-HSA wild type) [3]: 1.54
C4c EC50 [8]: 2.9 nM
iC3b EC50 [6]: 4.5 nM

CFI-HSA variant R557A; N531D; Y403F; K504Y (enzyme)
C4b Screen Ref Fold (fold of CFI-HSA wild type) [7]: 3.81
iC3b Screen Ref Fold (fold of CFI-HSA wild type) [3]: 0.11
C4c EC50 [8]: 38.6 nM
iC3b EC50 [6]: 156 nM

CFI-HSA variant T377G; N422K (enzyme)
C4b Screen Ref Fold (fold of CFI-HSA wild type) [7]: 2.25
iC3b Screen Ref Fold (fold of CFI-HSA wild type) [3]: 2.55
C4c EC50 [8]: 37.4 nM
iC3b EC50 [6]: 4.1 nM

CFI-HSA variant N531G; N422K; T377G (enzyme)
C4b Screen Ref Fold (fold of CFI-HSA wild type) [7]: 3.88
iC3b Screen Ref Fold (fold of CFI-HSA wild type) [3]: 2.74
C4c EC50 [8]: 6.8 nM
iC3b EC50 [6]: 3.3 nM

CFI-HSA variant N531G; E461Q; N422K; T377G (enzyme)
C4b Screen Ref Fold (fold of CFI-HSA wild type) [7]: 4.24
iC3b Screen Ref Fold (fold of CFI-HSA wild type) [3]: 1.7
C4c EC50 [8]: 5 nM
iC3b EC50 [6]: 2.4 nM

CFI-HSA variant D425K; Y408M (enzyme)
C4b Screen Ref Fold (fold of CFI-HSA wild type) [7]: 0.19
iC3b Screen Ref Fold (fold of CFI-HSA wild type) [3]: 1.88
C4c EC50 [8]: > 1000 nM
iC3b EC50 [6]: 9.4 nM

CFI-HSA variant P535A (enzyme)
C3b cleavage rate, kmut/kwt [4]: 1
C4b Screen Ref Fold (fold vs CFI-HSA wild type) [2]: 1.86
iC3b Screen Ref Fold (fold vs CFI-HSA wild type) [3]: 1.01

CFI-HSA variant Y20A (enzyme)
C3b cleavage, % Activity [1]: 7%
C4b Screen Ref Fold (fold vs CFI-HSA wild type) [2]: 0.14
iC3b Screen Ref Fold (fold vs CFI-HSA wild type) [3]: 0.05

CFI-HSA variant R557A; N531M (enzyme)
C4b Screen Ref Fold (fold of CFI-HSA wild type) [7]: 2.91
iC3b Screen Ref Fold (fold of CFI-HSA wild type) [3]: 0.09
C4c EC50 [8]: 78.7 nM
iC3b EC50 [6]: 288 nM

CFI-HSA variant S250L (enzyme)
C3b cleavage, % Activity [1]: -4%
iC3b Screen Ref Fold (fold vs CFI-HSA wild type) [3]: 0.09

CFI-HSA variant D425K; P558S (enzyme)
C4b Screen Ref Fold (fold of CFI-HSA wild type) [7]: 0.77
iC3b Screen Ref Fold (fold of CFI-HSA wild type) [3]: 2.11
C4c EC50 [8]: 153 nM
iC3b EC50 [6]: 7 nM

CFI-HSA variant E457G; E461Q; N422K (enzyme)
C4b Screen Ref Fold (fold of CFI-HSA wild type) [7]: 3.61
iC3b Screen Ref Fold (fold of CFI-HSA wild type) [3]: 2.37
C4c EC50 [8]: 17.2 nM
iC3b EC50 [6]: 3.5 nM

CFI-HSA variant D425K (enzyme)
C3b cleavage rate, kmut/kwt [4]: 1
C3b cleavage, % Activity [1]: 105%
C4b Screen Ref Fold (fold vs CFI-HSA wild type) [2]: 0.42
C4b Screen Ref Fold (fold of CFI-HSA wild type) [7]: 2.86
iC3b Screen Ref Fold (fold of CFI-HSA wild type) [3]: 0.11
iC3b Screen Ref Fold (fold vs CFI-HSA wild type) [3]: 1.34

CFI-HSA variant D425K; Y408M; F537K (enzyme)
C4b Screen Ref Fold (fold of CFI-HSA wild type) [7]: 0.09
iC3b Screen Ref Fold (fold of CFI-HSA wild type) [3]: 1.52
C4c EC50 [8]: > 1000 nM
iC3b EC50 [6]: 10.8 nM

CFI-HSA variant N531G (enzyme)
C3b cleavage rate, kmut/kwt [4]: 1
C4b Screen Ref Fold (fold vs CFI-HSA wild type) [2]: 6.26
iC3b Screen Ref Fold (fold vs CFI-HSA wild type) [3]: 2.1
C4c EC50 (nM) [5]: 58.4 nM
iC3b EC50 [6]: 8.3 nM

CFI-HSA variant K326A + R327A (enzyme)
C3b cleavage rate, kmut/kwt [4]: 0
C3b cleavage, % Activity [1]: 58%

CFI-HSA variant N531G; E461Q; T377G (enzyme)
C4b Screen Ref Fold (fold of CFI-HSA wild type) [7]: 4.1
iC3b Screen Ref Fold (fold of CFI-HSA wild type) [3]: 2.28
C4c EC50 [8]: 5 nM
iC3b EC50 [6]: 4.9 nM

CFI-HSA variant E461Q (enzyme)
C3b cleavage rate, kmut/kwt [4]: 2
C4b Screen Ref Fold (fold vs CFI-HSA wild type) [2]: 5.47
iC3b Screen Ref Fold (fold vs CFI-HSA wild type) [3]: 1.94
C4c EC50 (nM) [5]: 121 nM
iC3b EC50 [6]: 12 nM

CFI-HSA variant S250A + D425R (enzyme)
C3b cleavage rate, kmut/kwt [4]: 1

CFI-HSA variant R557A; N531G; Y403F; K504Y; E457G; E461Q (enzyme)
C4b Screen Ref Fold (fold of CFI-HSA wild type) [7]: 4.28
iC3b Screen Ref Fold (fold of CFI-HSA wild type) [3]: 0.36
C4c EC50 [8]: 22.4 nM
iC3b EC50 [6]: 38.2 nM

CFI-HSA variant D425K; Y408M; K504R (enzyme)
C4b Screen Ref Fold (fold of CFI-HSA wild type) [7]: 0.1
iC3b Screen Ref Fold (fold of CFI-HSA wild type) [3]: 1.57
C4c EC50 [8]: > 1000 nM
iC3b EC50 [6]: 14.6 nM

CFI-HSA variant Y20F + D425R (enzyme)
C3b cleavage rate, kmut/kwt [4]: 1

CFI-HSA variant N531G; E461Q; N422K (enzyme)
C4b Screen Ref Fold (fold of CFI-HSA wild type) [7]: 4.01
iC3b Screen Ref Fold (fold of CFI-HSA wild type) [3]: 1.81
C4c EC50 [8]: 7.2 nM
iC3b EC50 [6]: 3.7 nM

CFI-HSA variant T377G; N422K; E457G; E461Q; N531G (enzyme)
C4b Screen Ref Fold (fold of CFI-HSA wild type) [7]: 3.92
iC3b Screen Ref Fold (fold of CFI-HSA wild type) [3]: 0.78
C4c EC50 [8]: 3.5 nM
iC3b EC50 [6]: 3.7 nM

CFI-HSA variant Y20F (enzyme)
C3b cleavage, % Activity [1]: 80%
C4b Screen Ref Fold (fold vs CFI-HSA wild type) [2]: 0.27
iC3b Screen Ref Fold (fold vs CFI-HSA wild type) [3]: 0.67

CFI-HSA variant E38A (enzyme)
C3b cleavage, % Activity [1]: 79%
C4b Screen Ref Fold (fold vs CFI-HSA wild type) [2]: 0.09
iC3b Screen Ref Fold (fold vs CFI-HSA wild type) [3]: 0.43

CFI-HSA variant S250A (enzyme)
C3b cleavage, % Activity [1]: 82%
C4b Screen Ref Fold (fold vs CFI-HSA wild type) [2]: 0.07
iC3b Screen Ref Fold (fold vs CFI-HSA wild type) [3]: 0.38

CFI-HSA variant S507A (active site mutant) (enzyme)
C3b cleavage, % Activity [1]: 0%
